According to patent publication US20170157250A1 (Genmab, published 2017):

T1: human AXL (full length, on cells) (human (Homo sapiens), UniProt P30530 26-894)
T1 construct: Used for transfected HEK293 cells and for AXL-positive A431 cells (endogenous AXL); also called hsAXL; Homo sapiens AXL
T1 sequence: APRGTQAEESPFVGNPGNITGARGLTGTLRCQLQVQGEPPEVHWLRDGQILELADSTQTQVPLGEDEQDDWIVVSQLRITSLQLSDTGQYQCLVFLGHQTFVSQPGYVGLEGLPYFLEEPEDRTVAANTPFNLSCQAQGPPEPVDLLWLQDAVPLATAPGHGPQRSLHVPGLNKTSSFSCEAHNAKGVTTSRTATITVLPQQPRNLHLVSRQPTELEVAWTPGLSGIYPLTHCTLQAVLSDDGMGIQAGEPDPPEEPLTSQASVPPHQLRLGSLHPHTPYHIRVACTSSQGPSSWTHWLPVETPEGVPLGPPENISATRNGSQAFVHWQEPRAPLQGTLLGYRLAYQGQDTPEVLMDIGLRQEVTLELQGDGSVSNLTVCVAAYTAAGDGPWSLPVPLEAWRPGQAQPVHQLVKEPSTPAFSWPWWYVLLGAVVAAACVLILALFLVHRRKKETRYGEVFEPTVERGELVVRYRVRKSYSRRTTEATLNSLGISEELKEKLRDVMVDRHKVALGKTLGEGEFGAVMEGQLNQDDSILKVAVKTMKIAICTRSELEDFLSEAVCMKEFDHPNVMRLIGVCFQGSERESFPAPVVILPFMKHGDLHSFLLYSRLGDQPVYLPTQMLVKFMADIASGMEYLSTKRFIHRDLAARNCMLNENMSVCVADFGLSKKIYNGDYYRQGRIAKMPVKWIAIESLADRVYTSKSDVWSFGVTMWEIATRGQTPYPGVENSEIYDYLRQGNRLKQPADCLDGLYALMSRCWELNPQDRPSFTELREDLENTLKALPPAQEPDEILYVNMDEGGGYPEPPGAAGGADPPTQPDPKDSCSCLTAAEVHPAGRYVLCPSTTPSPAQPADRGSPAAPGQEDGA

B1: IgG1-AXL-183-A-vcDuo3 (other)
heavy chain: QVQLQQWGAGLLKPSETLSLTCAVYGGSFSGYYWSWIRQPPGKGLEWIGEINQSGSTNYNPSLKSRVTISVDTSKNQFSLKLSSVTAADTSVYYCASGNWDHFFDYWGQGTLVTVSS
light chain: DIQMTQSPSSVSASVGDRVTITCRASQGISSWLAWYQHKPGKAPKLLIYATSSLQSGVTSRFSGSGSGTDFTLTISSLQPEDFATYYCQQAKSFPWTFGQGTKVEIK
notes: The sheet writes '-A-vcDuo3', the text '-vcDuo3'; also called IgG1-AXL-183-vcDuo3; IgG1-AXL-183-vcDuostatin3
B2: IgG1-AXL-107 (antibody, V domains shown)
VH: EVQLLESGGGLVQPGGSLRLSCAASGFTFSSYAMNWVRQAPGKGLEWVSTTSGSGASTYYADSVKGRFTISRDNSKNTLYLQMNSLRAEDTAVYYCAKIWIAFDIWGQGTMVTVSS
VL: not shown
notes: Expressed as IgG1,kappa
B3: IgG1-AXL-171 (antibody, V domains shown)
VH: EVQLLESGGGLVQPGGSLRLSCAASGFTFSSYAMSWVRQAPGKGLEWVSDISVSGGSTYYADSVKGRFTISRDNSKNTLYLQMNSLRAEDTAVYYCAKEGYIWFGESLSYAFDIWGQGTMVTVSS
VL: not shown
notes: Expressed as IgG1,kappa

How the values were obtained:
[1] = target: T1, human AXL (full length, on cells); assay: flow cytometry, HEK293T cells transiently transfected with full-length human AXL, 4-fold dilutions, PE-anti-human IgG F(ab')2
Experimental: Binding curves were analyzed using non-linear regression (sigmoidal dose-response with variable slope) using GraphPad Prism V5.04 software (GraphPad Software, San Diego, Calif., USA).

[2] = target: T1, human AXL (full length, on cells); assay: flow cytometry, HEK-293F cells transfected with full length human AXL, 4-fold dilutions of antibody, PE-anti-human IgG F(ab')2

Row | Binder | EC50 (read off the curve) [1] [µg/mL] | EC50 (read off the curve) [2] [µg/mL]
1 | B1 | ~0.2 | 
2 | B2 |  | ~0.2
3 | B3 |  | ~0.2
